# From article PMC7937890
# System: T1, RsmE-His6 (Pseudomonas putida KT2440), ORF:50140dbc
# T1 sequence: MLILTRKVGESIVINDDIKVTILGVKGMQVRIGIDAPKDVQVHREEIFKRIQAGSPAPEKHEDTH
# Assay: EMSA
# Details: 1x binding buffer (composition only cited), RNA 5 or 10 nM, 30 min at 30 C, with or without 100-fold unlabeled competitor RNA; 6% non-denaturing PAGE in TBE at …
sequence,measurement,value
GGGUUCUAAGAUUGGAUCCACUGUUAAUCUUUACCACAUGGACGUUGCGCAGGAAGCGCAAAGGACAGAUCAAGGACGACGACGAAGGACCACCUGCCAGGAUGGCGGGGCGAUACGGAUGUCACAGGGAAACAGUCUGGAAAACCCCGCUUCGGCGGGGGGGGGUUUUUUUUGCGGCCGCUUUU [rsmY full-length RNA],binding,binds
